Experimental data: US20220195015A1 (published 2022)
Where a chain is given by its changes, count along the chain named.

B1: C525 (antibody, V domains shown)
VH: EVQLVESGGRLVQPGRSLRLSCAASGFTFDDYAIHWVRQAPGKGLEWVSGISWNSGSIGYADSVRGRFTISRDNAKNSLYLQMNSLRAEDTALYYCAKGLDSSSSASPDYWGQGTLVTVSS
VL: DIQMTQSPSSVSASVGDRVTITCRASQDISSWLAWYQQKPGKAPKLLIYLASSLQSGVPSRFSGSGSGTDFILTISSLQPEDFGTYYCQQGNSFPLTFGGGTKVEIK
B2: C536 (antibody, V domains shown)
VH: QVQLVESGGGLVKPGRSLRLSCTVSGFTFGAYAMSWFRQAPGKGLEWVGFIRSKTYGGTTEYAASLKGRFTISRDDSKSIAFLQMNSLKTEDTAVYFCSRGGYYDGSPYYWNRPDAFDIWGLGTMVTVS
VL: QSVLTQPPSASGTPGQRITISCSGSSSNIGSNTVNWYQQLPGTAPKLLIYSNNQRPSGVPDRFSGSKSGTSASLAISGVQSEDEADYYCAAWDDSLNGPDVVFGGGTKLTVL
B3: C537 (antibody, V domains shown)
VH: QLQLQESGPGLVKPSETLSLTCTVSGGAISSRNYHWGWIRQPPGKGLEWIGSIYYSGSTYYSPSLKSRVTISVDTSKNQFSLRLSSVTAADTAVYYCARLETSGWYTEDVFDIWGQGTMVTVSS
VL: DIQMTQSPSSLSASVGDRVTITCRASQSISSYLNWYQQKPGKAPKLLIYAASSLQSGVPSRFSGSGSGTDFTLTISSLLPEDFATYYCQRSYSAMYTFGQGTKLEIK
B4: C534 (antibody, V domains shown)
VH: QVQLVQSGAEVKKPGSSVRVSCKASGGTFSRNVISWVRQAPGQGLEWMGGIIPMFATANYAQKFQGRVTITADESSSTAYMELSSLRSEDTAVYYCAREDFILVSAPIRENSYYYYGMDVWGQGTTVTVSS
VL: EIVLTQSPGTLSLSPGERATLSCRASQSVSSNYLAWYQQKPGQAPRLLIYDASSRATGIPDRFSGSGSGTDFTLTISRLEPEDFAVYYCQQYGGSPRTFGQGTKVEIK
B5: C523 (antibody, V domains shown)
VH: QVQLQESGPGLVKPSETLSLTCTVSGASISSHYWSWIRQPPGKGLEWIGYIHYIGSTNYNPSLKSRVTILLDTSKNQFSLRLRSVTAADTAVYYCARGWPYCGVDCYSGFDYWGQGTLVTVSS
VL: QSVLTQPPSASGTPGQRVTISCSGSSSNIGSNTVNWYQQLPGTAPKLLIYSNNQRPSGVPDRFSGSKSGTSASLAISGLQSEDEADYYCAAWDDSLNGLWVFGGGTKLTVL
B6: C524 (antibody, V domains shown)
VH: EVQLVESGGDLIQPGGSLRLSCAASGFSVSNSYMSWVRQAPGKGLEWVSIIYSGGSTYYADSVKGRFTISRDNSKNTLYLQMNSLRAEDTAVYFCAKTPRGDYDSSGTSAYWGQGTLVTVSS
VL: QLVLTQSPSASASLGASVNLTCTLSSGHSSYAIAWHQQQPEKGPRFLMKLSSDGSHNKGDGIPDRFSGSSSGAERFLTISSLQSEDEADYYCQTWGIGSDWVFGGGTKLTVL
B7: C563 (antibody, V domains shown)
VH: EVQLVESGGGLVKPGGSLRLSCAASGFPFTNAWMSWVRQAPGKGLEWVGHIKDYTDGGTTDYAAPVKGKFTISRDDSKNTLYLHMNSLKTEDTAVYYCSTVGSYYYDSRGPTSDAFDIWGQGTLVTVSS
VL: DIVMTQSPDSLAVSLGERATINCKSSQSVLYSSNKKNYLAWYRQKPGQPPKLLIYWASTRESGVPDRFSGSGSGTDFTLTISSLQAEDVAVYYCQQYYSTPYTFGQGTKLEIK
B8: C535 (antibody, V domains shown)
VH: EVQLVESGGALVQPGRSLRLSCAASGFTFDDYAMHWVRQAPGKGLEWVSSISWNGVSIGYADSVRGRFTISRDNAKNSLYLQMNSLKIGDTAFYYCARGLDGSSSASPDSWGQGTLVTVSS
VL: B1 VL with D28G, S30G, D70Y, I72T, S77G, G84A
B9: C538 (antibody, V domains shown)
VH: QLQLQESGPGLVKPSETLSLTCTVSGGSISSSSYYWAWIRQPPGKGLEWIGNIYYSGITYYSPSLKSRVTISVDTSKNQFSLKLRSVTAADTAVYYCARQHRYGSGSSELLWGQGTLVTVSS
VL: QSALTQPPSASGSPGQSVTISCTGTSSDVGSYNYVSWYQQHPGKAPKLMIYEVTKRPSGVPDRFSGSKSGNTASLTVSGLQADDEADYYCSSYAGSSNLIFGGGTKLTVL

Molecular target: SARS-CoV-2 spike receptor binding domain (RBD), wild type (SARS-CoV-2, UniProt P0DTC2 319-539)
Experiment: ELISA, RBD protein coated, mAb titrated

| Binder | EC50 [ng/mL] |
| --- | --- |
| B1 | 10.6 |

Molecular target: SARS-CoV-2 spike receptor binding domain (RBD), wild type (SARS-CoV-2, UniProt P0DTC2 319-539)
Experiment: ELISA, RBD protein coated, mAb titrated
Remark: another data set of the same source

| Binder | EC50 [ng/mL] |
| --- | --- |
| B2 | 1.88 |
| B3 | 41.9 |
| B4 | 4.85 |
| B5 | 9.08 |
| B6 | 5 |
| B7 | 1.19 |
| B8 | 2.46 |
| B9 | 3.94 |
